From PMC2991502 (Cytoskeleton (Hoboken, N.J.), 2010)

Target: Rabbit skeletal muscle actin (rabbit, UniProt P68135 1-377)
Test: co-sedimentation

binding result: binds
B1: FRL2 FH1-FH2 I649A (amino acids 447-945 of the mouse protein) (domain or fragment)
chain: TSNQVHTLRRLIKEKEEAFQRRCHLEPSARGLESMGGEALARVGPTELTEGIPPSDLDLLAPAPPTEETLPLPPPPAPPLPPPPPPLPDKCPPAPPLPGAAPSVVLTVGLSAIRIKKPIKTKFRLPVFNWTALKPNQINGTVFSELDDEKILEDLDLDRFEELFKTKAQGPALDLICSKNKTAQKAASKVTLLEANRAKNLAATLRKAGRSAEEICRAIHTFDLQTLPVDFVECLMRFLPTEAEVKLLRQYERERQPLEELAAEDRFMLLFSKVERLTQRMAGMAFLGNFQDNLQMLTPQLNAIIAASASVKSSQKLKQMLEIILALGNYMNSSKRGAVYGFKLQSLDLLLDTKSTDRKMTLLHFIALTVKEKYPELANFWQELHFVEKAAAVSLENVLLDVKELGRGMELIRRECSIHDNSVLRNFLSTNEGKLDKLQRDAKTAEEAYNAVVRYFGESPKTTPPSVFFPVFVRFIRSYKEAEQENEARKKQEEVMREK
